Experimental data from paper PMC4827055.

Biological target: human Toll-like receptor 5 (TLR5) expressed on HEK293 cells (human) (UniProt O60602)
Sequence of UniProt O60602 (O60602 21-858): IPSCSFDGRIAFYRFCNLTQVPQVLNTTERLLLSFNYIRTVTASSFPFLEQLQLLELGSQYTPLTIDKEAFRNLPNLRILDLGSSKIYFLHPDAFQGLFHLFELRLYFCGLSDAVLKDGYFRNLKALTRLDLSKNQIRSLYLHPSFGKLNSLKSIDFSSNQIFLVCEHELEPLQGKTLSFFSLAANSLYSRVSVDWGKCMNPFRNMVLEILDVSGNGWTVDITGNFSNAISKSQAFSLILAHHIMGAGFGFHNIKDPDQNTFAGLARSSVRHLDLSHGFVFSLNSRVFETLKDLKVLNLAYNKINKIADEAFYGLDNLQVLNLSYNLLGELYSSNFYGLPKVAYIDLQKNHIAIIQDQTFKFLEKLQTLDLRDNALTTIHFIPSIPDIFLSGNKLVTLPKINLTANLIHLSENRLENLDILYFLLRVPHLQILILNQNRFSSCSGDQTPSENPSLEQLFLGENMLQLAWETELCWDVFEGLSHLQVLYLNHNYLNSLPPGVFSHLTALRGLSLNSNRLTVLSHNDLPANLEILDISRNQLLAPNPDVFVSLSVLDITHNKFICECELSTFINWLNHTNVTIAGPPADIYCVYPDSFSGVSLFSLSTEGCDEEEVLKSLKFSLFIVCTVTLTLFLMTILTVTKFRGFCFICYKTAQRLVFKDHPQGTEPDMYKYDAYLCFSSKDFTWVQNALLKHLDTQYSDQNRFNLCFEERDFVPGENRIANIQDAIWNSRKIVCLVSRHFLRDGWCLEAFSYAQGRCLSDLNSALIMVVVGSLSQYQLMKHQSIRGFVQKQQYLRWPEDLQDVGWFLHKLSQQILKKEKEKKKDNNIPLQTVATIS

## recombinant flagellin (rFliC) from Salmonella enterica serovar Typhimurium (from UniProt P06179 1-495) (natural protein)
  EC50 (half maximal induction) of NF-κB luciferase reporter in HEK293/hTLR5 cells, 24 hr stimulation: 0.0067 nM

## recombinant flagellin-E7m fusion protein rFliCE7m (E7m fused at the C-terminus of flagellin) (from UniProt P06179 1-495)
  EC50 (half maximal induction) of NF-κB luciferase reporter in HEK293/hTLR5 cells, 24 hr stimulation: 0.0237 nM
